Test results: the supplement of paper PMC10266784

B1: library; numbered along this chain (parent)
chain: MAAAAAAAAEQQSSNGPVKKSMREKAVERRSVNKEHNSNFKAGYIPIDEDRLHKTGLRGRKGNLAICVIILLFILAVINLIITLVIWAVIRIGPNGCDSMEFHESGLLRFKQVSDMGVIHPLYKSTVGGRRNENLVITGNNQPIVFQQGTTKLSVENNKTSITSDIGMQFFDPRTQNILFSTDYETHEFHLPSGVKSLNVQKASTERITSNATSDLNIKVDGRAIVRGNEGVFIMGKTIEFHMGGNMELKAENSIILNGSVMVSTTRLPSSSSGDQLGSGDWVRYKLCMCADGTLFKVQVTSQNMGCQISDNPCGNTH

Variants of: B1
Experiment: SGCB cell-surface expression functional score (HA stain, bin4 vs bin1, normalised to synonymous) (log10 ratio); higher = more cell-surface SGCB (functional)
Description: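 Deep mutational scan of full-length human SGCB (YFP-SGCB-HA, NNN codon sublibraries A-F) delivered by lentivirus at low MOI into ADG-HEK293 cells stably expressing SGCA, SGCD and SGCG. YFP-positive cells were stained for surface HA on unpermeabilized cells and FACS-sorted into bins. The functional score is log10(frequency in high bin 4 / frequency in low bin 1), normalised per chunk so that synonymous variants have mean 0 and SD 0.5. Scores are the median over codons and over duplicate biological replicates; scores below -0.5 are called non-functional. Scale: negative means deleterious.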

SGCB cell-surface expression functional score (log10): each site, then its substitutions
K41: M 0.55 | G -0.27 | P 0.21 | R -0.25 | L 0.1 | I -0.28 | Y -0.07 | F -0.47 | A 0.77 | D -0.08 | W 0.02 | E 0.61 | Q 0.4 | C -0.2 | N 0.25 | H 0.22 | T 0.26 | V 0.04 | S 0.28
E49: T 0.27 | K 0.42 | F 0.11 | Y 0.09 | I 0.51 | Q -0.19 | A 0.29 | D 0.02 | W 0.56 | N 0.48 | M 0.12 | H -0.23 | C 0.3 | R 0.35 | G 0.17 | V 0.12 | L -0.04 | S 0.15 | P 0.54
A42: M 0.33 | D -0.28 | I -0.45 | L -0.02 | Q -0.07 | F -0.42 | W 0.29 | N -0.67 | P 0.02 | C 0.21 | E 0.71 | S 0.1 | R -0.08 | T 0.1 | K 0.18 | H -0.08 | G 0.22 | Y -0.17 | V -0.08
I45: E 0.23 | P 0.52 | S -0.08 | Q -0.67 | G -0.04 | H 0.03 | V 0.48 | R -0.17 | C -0.09 | L -0.03 | T 0.15 | A 0.33 | F -0.02 | D 0.9 | K -0.41 | N 0.15 | W 0.91 | Y 0.68 | M 0.43
Y44: A 0.04 | R 0.08 | F 0.02 | S 0.14 | D 0.53 | K 0.04 | Q 0.8 | W 0.07 | H 0.01 | C 0.8 | E 0.75 | T 0.39 | G 0.59 | P 0.61 | V 0.64 | M 0.39 | L 0.55 | N -0.24 | I 0.42
R51: W 0.83 | G -0.17 | D -0.06 | A 0.1 | S 0.04 | P 0.04 | Y 0.17 | C -0.24 | H 0 | K 0.63 | T 0.01 | N 0.2 | L 0.47 | M -0.39 | V 0.39 | I 0.36 | F 0.49 | Q 0.54 | E 0.04
N37: E 0.3 | W -0.53 | G -0.15 | R -0.21 | I 0.02 | Q -0.21 | V -0.13 | L 0.05 | P -0.1 | S -0.21 | Y -0.46 | K -0.39 | F -0.14 | H 0.41 | M -0.37 | T -0.11
N39: Q 0.07 | G 0.13 | W -0.81 | Y -0.08 | V 0.44 | D 0.41 | P -0.17 | K 0.08 | L -0.02 | E 0.54 | T -0.1 | I -0.18 | H -0.1 | S 0.02 | M -0.61 | R -0.29 | A -0.05 | C 0.2 | F -0.12
D50: T 0.44 | N 0.29 | G 0.3 | H 0.24 | L 0.12 | Q 0.04 | S 0.26 | W -0.47 | E 0.3 | M 0.2 | C 0 | I 0.07 | K 0.54 | F 0.27 | V -0.03 | A 0.14 | R 0.28 | Y 0
